Assay results as given in patent US20180044434A1.

Legend:
[1] = biological target: T1, Ala mutant having 3-amino acid substitution, SEQ ID NO: 46; assay: ELISA, coated peptide
T1 sequence (peptide): EENMDDAAAQDEMEIGY

[2] = biological target: T2, Ala mutant of TA0096, SEQ ID NO: 32; assay: ELISA, coated peptide
T2 sequence (peptide): EENMDAQWMQDEMEIGY

OD 490/630 nm [1]: 0.052
OD 490/630 nm [2]: 0.012
Substance: anti-dinitrophenyl (DNP) antibody (negative control)
